{"source": "paper PMC10200060", "about": "“Inhibition of DAMP actions in the tumoral microenvironment using lactoferrin-glycyrrhizin conjugate for glioblastoma therapy” (Biomaterials Research, 2023)", "key": {"[1]": {"test_system": "HUVEC", "assay": "HUVEC co-cultured with U87MG: CCK-8 at basal chamber", "assay_type": "cell-based, human", "settings": "HUVEC/U87MG Transwell co-culture, 100 μM GL equivalent, 24 h", "experimental": "To evaluate the inhibitory effect of Lf-GL on neovascularization in the tumor microenvironment in vitro, U87MG cells were seeded in the Transwell® insert chambers that were 6.5 mm in diameter and had 0.4 μm pore sizes (seeding density: 2.5 × 10^4 cells per well, Corning). HUVECs were seeded in the Transwell basal chamber (seeding density: 5.0 × 10^4 cells per well). GL, Lf, or Lf-GL (100 × 10^–6 M of GL equivalent concentration) were added to the insert chamber, and cells were incubated for 24 h. CCK-8 assay and HMGB1 ELISA were conducted at the basal chamber."}, "[2]": {"test_system": "HMGB1", "assay": "HMGB1 ELISA of U87MG culture medium", "assay_type": "cell-based, human", "settings": "50 μM GL equivalent, 48 h (control 131.8 ± 11.4)", "experimental": "U87MG cells were seeded in 100 mm-cell culture dishes (2.2 × 10^6 cells per dish) and treated with GL, Lf, or Lf-GL (50 × 10^–6 M GL equivalent concentration) for 48 h. After incubating, cells were collected using a cell scrapper and were centrifuged for 3 min at 150 × g. Supernatant was collected as cell culture medium, and pellets were washed with cold PBS twice and transferred into a microcentrifuge tube. Tubes were centrifuged, and then pellets were resuspended in 500 μL 1X hypotonic buffer and incubated on ice. Then, 25 μL of NP40 was added and the mixture was agitated using a vortex mixer at the highest setting. Homogenates were centrifuged for 10 min at 842 × g at 4℃. Supernatant was collected as the cytoplasmic fraction, and pellets were resuspended in cell extraction buffer (50 μL) and were incubated for 30 min on ice with vortexing at 10 min intervals. Then, homogenates were centrifuged for 30 min at 14,000 × g at 4℃. Supernatant was collected as the nuclear fraction. The amount of HMGB1 in the samples was measured using a HMGB1 ELISA kit (Abbkine), and absorbance was measured at 450 nm in a micro-plate reader. A DNA assay (Quant-iT™ dsDNA Assay Kit, Invitrogen) was also conducted to express HMGB1 concentrations in equivalent amounts of DNA."}, "[3]": {"test_system": "orthotopic GBM (U87MG) mice model", "assay": "Survival in orthotopic GBM mouse model", "assay_type": "in vivo, Balb/c nude mice", "settings": "i.v. GL equivalent 50 mg kg^−1 (Lf 5 mg kg^−1)", "experimental": "To establish the orthotopic GBM mice model, GBM cells (U87MG, inoculation density: 1.0 × 10^6 cells per 10 μL) were stereotactically injected into the right striatum of Balb/c nude mice. Then, mice were randomly divided into four groups (n = 5): control, GL, Lf, and Lf-GL treated group. […] After four weeks, mice were sacrificed, and organs were harvested and fixed with 4% paraformaldehyde for further analysis."}, "[4]": {"test_system": "orthotopic GBM (U87MG) mice model", "assay": "Nissl staining: GBM/normal brain ratio", "assay_type": "in vivo, Balb/c nude mice", "settings": "daily i.v. GL equivalent 50 mg kg^−1, 14 days (control 37.5 ± 2.3)", "from_the_text": "After two weeks, mice were sacrificed, and the brains were harvested and fixed with paraformaldehyde (4%). Then, tissue processing was automatically conducted using a Leica TP1020 semi-enclosed Benchtop Tissue Processor (Leica Biosystems, Wetzlar, Hesse, Germany), followed by embedding in paraffin blocks. Paraffin blocks were sliced into 5 μm thick slices using a Leica RM2145 Microtome (Leica Biosystems). Nissl staining was used to stain brain tissue slides with pre-warmed 0.1% Cresyl Violet Stain Solution (Abcam). TUNEL assays were conducted following the manufacturer’s instructions. For immunofluorescence staining; anti-HMGB1 antibody (Abcam), anti-Ki67 antibody (Abcam), anti-CD31 antibody (Abcam), and anti-VEGF antibody (Abcam) were used as primary antibodies, and goat anti-rabbit IgG-H&L Alexa Fluor 488 and goat anti-rabbit IgG H&L Alexa Fluor 647 were used as secondary antibodies, followed by DAPI mounting."}, "[5]": {"test_system": "U87MG human glioma cell line", "assay": "Cell viability test (CCK-8) in U87MG", "assay_type": "cell-based", "settings": "50 μM GL equivalent", "experimental": "Cell viability was determined using a cell counting kit-8 (CCK-8). U87MG and HUVECs (seeding density: 0.75 × 10^4 cells per well) in 96-well culture plates were treated with GL, Lf, or Lf-GL (25 to 200 × 10^–6 M of GL equivalent concentration) and were incubated for different periods of time (24, 48, and 72 h). After washing with PBS, they were treated with a cell culture medium containing a CCK-8 assay kit (Abbkine) and were incubated at 37 °C and 5% CO2 for 2 h. Then, absorbance was measured at 450 nm in a micro-plate reader (VLBL00D0, Thermo Fisher Scientific). Results were quantified using Sigma Plot (Systat Software, USA). To determine the effect of extracellular HMGB1 in GBM and endothelial cell proliferation, U87MG and HUVECs were seeded in 96-well culture plates (seeding density: 0.75 × 10^4 cells per well) and GL, Lf, or Lf-GL (50 × 10^–6 M GL equivalent concentration) were added to cells with or without HMGB1 protein (U87MG: 0.1 μg mL^−1, and HUVEC: 1 μg mL^−1). Cells were incubated for different periods of time (24, 48, and 72 h)."}, "[6]": {"test_system": "U87MG spheroid", "assay": "GBM spheroid growth inhibition", "assay_type": "cell-based, human", "settings": "GL equivalent 50 µM, day 6 (control 294%)", "experimental": "Fig. S8. GBM spheroid growth inhibition of Lf-GL. To form U87MG spheroid, cells were seeded at density of 1X10^5 cells in concave mold (StemFIT 3D; MICROFIT, Korea). After spheroids were formed, they were transferred to 24-well plate coated with 2% agarose gel. The constructed spheroids were treated with conditioned medium at 2 days interval after a washing step with PBS. (a) Morphology of U87MG spheroid treated with Lf-GL of GL equivalent concentration of 50 µM on day 0, 2, 4 and 6, respectively. Scale bar: 200 µm (b) GBM spheroids time-related volume after treated with Lf-GL of GL equivalent concentration of 50 µM. Data were expressed as mean ± S.E.M (n=9). **P <0.01 versus Control."}}, "data": [{"molecule": "Lf-GL: lactoferrin-glycyrrhizin conjugate with ligation ratio Lf:GL 1:10, used in further experiments (conjugate, UniProt P24627 20-708, looked up, glycyrrhizin conjugate) Lactotransferrin: APRKNVRWCTISQPEWFKCRRWQWRMKKLGAPSITCVRRAFALECIRAIAEKKADAVTLDGGMVFEAGRDPYKLRPVAAEIYGTKESPQTHYYAVAVVKKGSNFQLDQLQGRKSCHTGLGRSAGWIIPMGILRPYLSWTESLEPLQGAVAKFFSASCVPCIDRQAYPNLCQLCKGEGENQCACSSREPYFGYSGAFKCLQDGAGDVAFVKETTVFENLPEKADRDQYELLCLNNSRAPVDAFKECHLAQVPSHAVVARSVDGKEDLIWKLLSKAQEKFGKNKSRSFQLFGSPPGQRDLLFKDSALGFLRIPSKVDSALYLGSRYLTTLKNLRETAEEVKARYTRVVWCAVGPEEQKKCQQWSQQSGQNVTCATASTTDDCIVLVLKGEADALNLDGGYIYTAGKCGLVPVLAENRKSSKHSSLDCVLRPTEGYLAVAVVKKANEGLTWNSLKDKKSCHTAVDRTAGWNIPMGLIVNQTGSCAFDEFFSQSCAPGADPKSRLCALCAGDDQGLDKCVPNSKEKYYGYTGAFRCLAEDVGDVAFVKNDTVWENTNGESTADWAKNLNREDFRLLCLDGTRKPVTEAQSCHLAVAPNHAVVSRSDRAAHVKQVLLHQQALFGKNGKNCPDKFCLFKSETKNLLFNDNTECLAKLGGRPTYEEYLGTEYVTAIANLKKCSTSPLLEACAFLTR", "values": [{"measurement": "Reduction of endothelial cell proliferation", "setting": "[1]", "result": "13.0 ± 0.7", "unit": "%"}, {"measurement": "HMGB1 released into the medium of U87MG cells", "setting": "[2]", "result": "74.0 ± 0.9", "unit": "ng/mL"}, {"measurement": "Mice survived up to 28 days", "setting": "[3]", "result": 87.5, "unit": "%"}, {"measurement": "Additional days of survival versus PBS control", "setting": "[3]; 28 days", "result": 5, "unit": "days"}, {"measurement": "GBM/normal brain ratio", "setting": "[4]", "result": "8.9 ± 3.2"}, {"measurement": "Growth rate", "setting": "[5]; 72 h", "result": "68.7 ± 15.9", "unit": "%"}, {"measurement": "Number of cells, % of the original count", "setting": "[5]; after 48 h treatment", "result": "44.1 ± 6.3", "unit": "%"}, {"measurement": "Spheroid volume increase at day 6 compared to day 0", "setting": "[6]", "result": 156, "unit": "%"}]}]}
